Tested on: peptide library, one residue held at a place counted from the S/T acceptor
Assay: relative phosphorylation of the sub-library (ratio to the mean residue at this position); human; higher = residue favoured
How it was run: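 Relative sub-library phosphorylation is a ratio to the mean residue at the same position. Purified recombinant kinases were incubated under kinase-specific conditions with biotinylated degenerate peptide sub-libraries, each fixing one residue at one position around a central Ser/Thr, using 50 μM peptide and 50 μM ATP spiked with γ-32P-ATP for 90 min. Spots captured on streptavidin membranes were phosphorimaged and quantified by densitometry.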

CSNK1A1L, construct: Full length, sequence (Q8N752 whole entry, looked up): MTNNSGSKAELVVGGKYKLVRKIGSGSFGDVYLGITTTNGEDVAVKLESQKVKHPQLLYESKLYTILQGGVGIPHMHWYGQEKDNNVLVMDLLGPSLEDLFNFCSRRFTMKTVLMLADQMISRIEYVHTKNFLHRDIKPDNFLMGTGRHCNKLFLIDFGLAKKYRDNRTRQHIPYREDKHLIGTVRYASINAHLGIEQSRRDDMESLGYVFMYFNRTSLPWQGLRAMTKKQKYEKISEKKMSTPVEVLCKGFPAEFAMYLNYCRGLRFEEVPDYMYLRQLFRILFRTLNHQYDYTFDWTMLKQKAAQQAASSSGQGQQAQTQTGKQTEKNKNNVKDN

CSNK1A1L, construct: Full length (from UniProt Q8N752)
relative phosphorylation
Conditions | at +1 | at +2 | at +3 | at +4 | at -1 | at -2 | at -3 | at -4 | at -5
A fixed | 0.971 | 1.06 | 1.06 | 1.04 | 1.09 | 1.69 | 0.946 | 0.941 | 0.921
D fixed | 0.691 | 0.714 | 0.868 | 0.854 | 0.749 | 0.716 | 1.06 | 0.888 | 0.771
E fixed | 0.871 | 0.578 | 0.9 | 0.871 | 0.977 | 0.991 | 2.26 | 1.1 | 0.78
F fixed | 0.886 | 1.12 | 1.17 | 1.05 | 0.872 | 0.81 | 0.784 | 0.965 | 1.27
G fixed | 0.849 | 0.885 | 1.07 | 0.992 | 1.21 | 0.819 | 0.778 | 0.948 | 0.897
H fixed | 0.744 | 0.98 | 0.899 | 0.858 | 0.896 | 0.748 | 0.734 | 0.933 | 0.985
I fixed | 1.87 | 1.66 | 1.19 | 1.03 | 0.879 | 0.847 | 0.965 | 1.13 | 1.1
K fixed | 0.883 | 1.02 | 0.845 | 1.09 | 1.2 | 1.35 | 1.13 | 1.24 | 1.27
L fixed | 1.19 | 0.964 | 1.07 | 1.11 | 1.01 | 0.903 | 0.811 | 1.08 | 1.09
M fixed | 1.03 | 1.02 | 1.17 | 1.08 | 1.13 | 0.839 | 0.751 | 0.96 | 1.09
N fixed | 0.745 | 0.702 | 0.795 | 0.777 | 0.997 | 0.798 | 0.704 | 0.96 | 0.874
P fixed | 0.719 | 0.705 | 0.904 | 1.1 | 1.02 | 1.19 | 0.741 | 0.873 | 0.874
Q fixed | 0.801 | 0.731 | 0.808 | 0.913 | 0.878 | 0.889 | 0.685 | 0.865 | 0.807
R fixed | 1.25 | 1.03 | 0.801 | 0.897 | 1.54 | 2.1 | 2.08 | 1.15 | 1.18
V fixed | 1.88 | 1.38 | 1.14 | 1.02 | 0.854 | 0.889 | 0.813 | 0.956 | 0.925
W fixed | 0.769 | 1.06 | 1.16 | 1.24 | 0.754 | 0.681 | 0.656 | 0.946 | 0.928
Y fixed | 0.854 | 1.4 | 1.15 | 1.07 | 0.94 | 0.737 | 1.09 | 1.08 | 1.25
pThr fixed | 1.69 | 0.803 | 1.25 | 1.64 | 2.06 | 3.58 | 53.8 | 5.13 | 1.56
pTyr fixed | 1.26 | 2.63 | 3.97 | 2.06 | 1.5 | 1.78 | 2.99 | 4.32 | 1.93

— the supplement of paper PMC9876800
